{"source": "paper PMC7862291", "about": "“Full-length in meso structure and mechanism of rat kynurenine 3-monooxygenase inhibition” (Communications Biology, 2021)", "proteins": {"B1": {"name": "full-length Rattus norvegicus kynurenine 3-monooxygenase (Rat-KMO), crystallisation construct (enzyme, Rattus norvegicus (rat), UniProt O88867 1-478, looked up)", "chain": "MASSDTEGKRVVVIGGGLVGALNACFLAKRNFQVDVYEAREDIRVANFMRGRSINLALSYRGRQALKAVGLEDQIVSKGVPMKARMIHSLSGKKSAIPYGNKSQYILSISREKLNKDLLTAVESYPNAKVHFGHKLSKCCPEEGILTMLGPNKVPRDITCDLIVGCDGAYSTVRAHLMKKPRFDYSQQYIPHGYMELTIPPKNGEYAMEPNCLHIWPRNAFMMIALPNMDKSFTCTLFMSFEEFEKLPTHSDVLDFFQKNFPDAIPLMGEQALMRDFFLLPAQPMISVKCSPFHLKSRCVLMGDAAHAIVPFFGQGMNAGFEDCLVFDELMDKFNNDLSVCLPEFSRFRIPDDHAISDLSMYNYIEMRAHVNSRWFLFQRLLDKFLHALMPSTFIPLYTMVAFTRIRYHEAVLRWHWQKKVINRGLFVLGSLVAIGSAYILVHHLSPRPLELLRSAWTGTSGHWNRSADISPRVPWSH", "notes": "thrombin site between GST and the N-terminus, TEV site before the C-terminal FLAG tag; C-terminus disordered from H443 in the structure; crystallised in meso with compound 3 or compound 4; No TEV cleavage is described; Treated with N-Glycosidase F; also called full-length KMO (1-478); not shown: GST, N-terminal, cleaved"}}, "biological_target": "the molecule itself", "experiment": "crystal structure; in meso (lipidic cubic phase, 9:1 monoolein:cholesterol); Rat-KMO with compound 3 (and NADPH) or compound 4; 3.0 Å", "data": [{"protein": "B1", "values": [{"measurement": "stoichiometry N", "value": 2}]}]}
